Assay results from patent US10500174B2, “Pharmaceutical composition for preventing or treating degenerative brain disease” (SOONCHUNHYANG UNIVERSITY INDUSTRY ACADEMY COOPERATION …, priority 2016, dated 2019).

Experiments:
[1] = Plasma stability test (HPLC); format: in vitro ADME; conditions: human plasma, 37° C.
Procedure: In order to evaluate plasma stability, a homogeneous solution of Compound 8 ([…]) was prepared. An aliquot thereof was injected into the plasma (human, Sigma, USA) so as to reach a final concentration of 50 μg/ml, followed by vortexing and culturing at 37° C. for 0, 3, 6, 9, 12, 15, 18, 21 and 24 hr. The plasma solution (200 μl) was then mixed with 1 ml of MeOH to prevent hydrolysis of Compound 8. This solution was added with biotin (internal standard) in distilled water (100 μl, 5 μg/ml) and centrifuged at 2000 rpm for 10 min. The supernatant was collected and dried in air. The residue was dissolved in distilled water (2 ml) and centrifuged at 2000 rpm for 10 min. The supernatant thus obtained was analyzed using HPLC through the following method.
10 μl of the clean supernatant obtained through the above method was introduced into the HPLC system. The UV detector was set at 260 nm and the flow rate was 1.0 ml/min for a running time of 10 to 15 min. The isocratic mobile phase system consisted of MeOH/H2O (30/70), and the column oven was maintained at 37° C. using a C18-column (Agilent, ZORBAX, 4.6×250 mm, 5 μm).
HPLC chromatograms were obtained at each interval, and the remaining amount of Compound 8 was calculated and expressed as a percentage by subtracting the concentration of ibuprofen, released based on the area under the curve, from the sum of the initial concentration of Compound 8 and the internal standard.

HeLa cells = experiment: Evaluation of cellular uptake of ibuprofen conjugate (confocal fluorescence); format: cell-based; conditions: 10 μM, 37° C., 30 min, confocal laser scanning microscope
Procedure: HeLa cells were cultured at 37° C. in wet air containing 5% CO2 in a DMEM (high-glucose Dulbecco's Modified Eagle's Medium) containing penicillin-added 10% (v/v) FBS (fetal bovine serum). Subculturing was performed every 2 to 3 days until the cells became subconfluent.
HeLa cells (1×10^5 cells per well) were seeded on a 35 mm coverglass dish (SPL Ltd., Korea) and cultured for 24 hr, after which the medium was removed, and the HeLa cells were washed with cold PBS (×1) (Dulbecco's phosphate buffered saline, pH 7.4). The resulting cells were cultured at 37° C. for 30 min in 3 ml of DMEM containing 10 μM Compound 8 or 10 μM Compound 9, after which the medium was removed, and the HeLa cells were washed five times with cold PBS. The intracellular internalization and intracellular localization of the compound were investigated through fluorescence, achieved using fluorescein, using a confocal laser scanning microscope (Olympus Fluoview FV1000, N.A. 1.30, 40×, planApo, oil immersion lens). The fluorescence of FITC was analyzed at an excitation wavelength of 488 nm and an emission wavelength of 500 to 530 nm, and all experiments were performed three times.

[2] = In-vivo distribution in mouse tissue (fluorescence imaging of tissue flakes); conditions: 94.6 mg kg^−1 intraperitoneal, after 20 min
Procedure: After 20 min, the mice administered with the above solution were perfused with PBS (pH 7.4) containing paraformaldehyde (4%), and the main organs (brain, heart, lungs, kidneys, spleen and liver) thereof were cultured overnight in PBS (phosphate buffered saline) containing sucrose (0.5 M). A cryoprotectant was added thereto and the above tissue was cut into 15 μm flakes using a cryostat, transferred to a coated slide glass and then dried. Each flake was washed with PBS, treated with Triton X-100 (0.3%) at room temperature for 15 min, and analyzed using an Axioplan2 fluorescence imaging microscope. As a control, deionized water (500 μl) was injected into other mice, and the same procedures as above were performed, after which the compound represented by green fluorescence of FITC in each tissue was compared with autofluorescence of the control.

| distribution in brain (green fluorescence of FITC) [2] | Compound | hydrolysis relative to the initial time (0 hr) ([1]; 50 μg/ml, after culture for 3 hr) | decrease of the amount remaining ([1]; 50 μg/ml, next culture time of 21 hr (3 to 24 hr)) [%] | half-life and stability in the plasma (in words) ([1]; up to 24 hr) | cellular uptake / intracellular FITC fluorescence (HeLa cells) |
| --- | --- | --- | --- | --- | --- |
| – | CC(C)Cc1ccc(C(C)C(=O)NCC(=O)OC[C@H](OC(=O)CCCCCN(CCCNC(=N)N)CCCNC(=N)N)[C@@H](OC(=O)CCCCCN(CCCNC(=N)N)CCCNC(=N)N)[C@H](OC(=O)CCCCCN(CCCNC(=N)N)CCCNC(=N)N)[C@@H](COC(=O)CCCCCNC(=S)Nc2ccc3c(c2)C(=O)OC32c3ccc(O)cc3Oc3cc(O)ccc32)OC(=O)CCCCCN(CCCNC(=N)N)CCCNC(=N)N)cc1.Cl.Cl.Cl.Cl.Cl.Cl.Cl.Cl (stereo partly drawn) [Compound 8, 1-O-(2-aminoacetoxy-ibuprofen)-2,3,4,5-tetra-O—[N-{bis-(3-guanidinopropyl)}-6-aminohexanoyl]-6-O-[6-(fluoresceinyl-5-thioureido)-hexanoyl]-D-sorbitol 8HCl] | about 5% | ~8 | long half-life and considerable stability | strong green fluorescence that is predominant in the cytoplasm |
| not distributed in the brain | fluoresceinyl (S)-2-(2-(4-isobutylphenyl)propanamido)-acetate [Compound 9] | – | – | – | did not show fluorescence in the cells |
